Reference: PMC10049731, “Legumain Functions as a Transient TrkB Sheddase” (International Journal of Molecular Sciences, 2023)
One block for each binder: values may come before it.

How the values were obtained:
[1] = molecular target: the molecule itself; assay: dynamic light scattering; BDNF alone; Figure S4C; conditions not shown
[2] = molecular target: TrkB Ig2 domain (His283-Glu428) (rat); assay: MST; in solution; TrkB variant (intact or legumain-processed) labelled with NT-647 RED and kept constant, unlabelled BDNF (20.5 uM) in a 16-step 1:2 dilution series; 1x PBS pH 7.4, 0.005% Tween 20; 10 min at RT; Monolith NT.115
[3] = molecular target: legumain-processed TrkB Ig2 domain (rat); assay: as above
[4] = molecular target: T1, TrkB ectodomain (Ser29-Glu428) (rat, UniProt Q63604-1 29-428, several glycosylation forms; labelled with NT-647 RED dye in the MST set-up with labelled TrkB); assay: as above; conditions: both partners purified
T1 construct: Secreted by way of the pHLsec vector; also called TrkB ECD; full-length ectodomain; source: HEK293S, transfected (pHLsec), secreted into medium, purified (Ni-NTA); not shown: His6, C-terminal, kept
T1 sequence (Q63604 29-428): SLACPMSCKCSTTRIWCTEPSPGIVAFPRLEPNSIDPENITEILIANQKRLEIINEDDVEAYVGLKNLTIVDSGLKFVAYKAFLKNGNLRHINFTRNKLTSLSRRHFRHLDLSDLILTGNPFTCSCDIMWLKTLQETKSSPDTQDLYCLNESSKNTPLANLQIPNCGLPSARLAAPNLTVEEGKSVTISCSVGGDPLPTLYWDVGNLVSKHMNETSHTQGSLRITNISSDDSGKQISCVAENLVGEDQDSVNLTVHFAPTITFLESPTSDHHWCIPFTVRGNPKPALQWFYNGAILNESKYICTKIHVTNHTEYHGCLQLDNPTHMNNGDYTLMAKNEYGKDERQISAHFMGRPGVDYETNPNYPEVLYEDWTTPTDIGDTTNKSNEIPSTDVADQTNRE

[5] = molecular target: T2, legumain-processed TrkB ectodomain (rat, UniProt Q63604-1 29-391, glycosylated; labelled with NT-647 RED dye in the MST); assay: as above; conditions: both partners purified
T2 construct: TrkB, rat, ectodomain construct Ser29-Glu428 cut by legumain in the membrane linker; dominant cleavage site after Asn391, minor sites after Asp385 and Asn389, so the C-terminus is a mixture; C-terminal limit is that of the dominant cleavage site (Asn391); the His6 tag is lost with the cut fragment; also called legumain-processed TrkB ECD; processed TrkB ECD; source: HEK293S, purified (Ni-NTA), …
T2 sequence (Q63604 29-391): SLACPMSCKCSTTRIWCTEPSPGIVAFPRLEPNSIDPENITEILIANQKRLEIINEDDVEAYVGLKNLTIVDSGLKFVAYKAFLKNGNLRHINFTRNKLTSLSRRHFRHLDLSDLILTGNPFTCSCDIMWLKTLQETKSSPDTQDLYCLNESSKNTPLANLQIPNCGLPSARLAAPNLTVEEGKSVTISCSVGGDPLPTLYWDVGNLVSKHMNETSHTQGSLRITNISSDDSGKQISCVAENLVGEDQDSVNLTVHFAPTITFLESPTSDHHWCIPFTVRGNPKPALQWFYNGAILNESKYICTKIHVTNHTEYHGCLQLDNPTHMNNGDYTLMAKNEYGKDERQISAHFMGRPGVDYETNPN

[6] = molecular target: TrkB Ig2 domain (His283-Glu428) (rat); assay: MST; in solution; TrkB ECD or Ig2 with proBDNF; which partner was labelled is not told; MST buffer 1x PBS pH 7.4, 0.005% Tween 20
[7] = molecular target: T1, TrkB ectodomain (Ser29-Glu428); assay: as above; conditions: both partners purified

Kd [2]: 67 nM
Kd [3]: 300 nM
Kd [4]: 106 ± 44 nM
Kd [5]: 188 ± 82 nM
B1: Brain-derived neurotrophic factor (BDNF), mature (His131-Arg249) (ligand, rat, UniProt P23363 131-249, looked up)
chain: HSDPARRGELSVCDSISEWVTAADKKTAVDMSGGTVTVLEKVPVSKGQLKQYFYETKCNPMGYTKEGCRGIDKRHWNSQCRTTQSYVRALTMDSKKRIGWRFIRIDTSCVCTLTIKRGR
modifications: disulfides Cys143-Cys210, Cys188-Cys239, Cys199-Cys241; labelled with NT-647 RED dye in the MST set-up with labelled BDNF
notes: mature BDNF, cut from proBDNF by furin, His131-Arg249; The species rests on the legend 'Preparation of rat TrkB and proBDNF'; the printed residue numbers fit a 249-residue precursor; also called mature BDNF
stoichiometry N [1]: 2

Kd [6]: 441 nM
Kd [7]: 306 nM
B2: proBDNF (ligand, rat, UniProt P23363 19-249, looked up)
chain: APMKEANVHGQGNLAYPAVRTHGTLESVNGPRAGSRGLTTTSLADTFEHVIEELLDEDQKVRPNEENHKDADLYTSRVMLSSQVPLEPPLLFLLEEYKNYLDAANMSMRVRRHSDPARRGELSVCDSISEWVTAADKKTAVDMSGGTVTVLEKVPVSKGQLKQYFYETKCNPMGYTKEGCRGIDKRHWNSQCRTTQSYVRALTMDSKKRIGWRFIRIDTSCVCTLTIKRGR
notes: proBDNF, the pro-form of brain-derived neurotrophic factor; also called pro-form of BDNF; source: E. coli Rosetta 2 (DE3), inclusion bodies, folded in vitro, purified (SP-sepharose)
